Assay results reported in article PMC4294675 (Molecular Biology of the Cell, 2015).
Values belong to the molecule of their own block, whether it stands above or below them.

What was measured:
Experiment in all cases: other fluorescence titration
[1] = molecular target: ScPFY(9-Mut) (Saccharomyces cerevisiae) (UniProt P07274)
[2] = molecular target: fission yeast profilin SpPRF (S. pombe) (UniProt P39825)
[3] = molecular target: budding yeast profilin ScPFY (wild type) (Saccharomyces cerevisiae) (UniProt P07274)
Cdc12(FH1) = molecular target: T1, Cdc12(FH1) (fission yeast, UniProt Q10059 740-972)
T1 sequence: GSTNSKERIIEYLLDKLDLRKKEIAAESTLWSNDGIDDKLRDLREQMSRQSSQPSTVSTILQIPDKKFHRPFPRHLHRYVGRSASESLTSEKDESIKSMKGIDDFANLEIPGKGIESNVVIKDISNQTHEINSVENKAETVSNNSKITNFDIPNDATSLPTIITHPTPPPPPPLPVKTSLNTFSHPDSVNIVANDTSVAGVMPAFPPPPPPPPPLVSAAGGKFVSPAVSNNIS

Chain of fission yeast profilin SpPRF (S. pombe) (P39825 whole entry): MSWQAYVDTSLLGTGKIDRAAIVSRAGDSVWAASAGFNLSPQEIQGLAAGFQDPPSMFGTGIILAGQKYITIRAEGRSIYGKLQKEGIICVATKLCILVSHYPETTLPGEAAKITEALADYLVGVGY

Kd [1]: 195 µM
Kd [2]: 59 µM
Kd [3]: 224 µM
Molecule: poly-L-proline (peptide)

Kd (Cdc12(FH1)): 24.7 µM
B1: budding yeast profilin ScPFY (wild type) (natural protein)
chain: MSWQAYTDNLIGTGKVDKAVIYSRAGDAVWATSGGLSLQPNEIGEIVQGFDNPAGLQSNGLHIQGQKFMLLRADDRSIYGRHDAEGVVCVRTKQTVIIAHYPPTVQAGEATKIVEQLADYLIGVQY

Kd [1]: 22.7 µM
B2: Cdc12(FH1) (domain or fragment)
chain: T1 sequence
